# From US12533393B2, “Vibrio cholerae protein for use against cancer” (priority 2019, dated 2026)
# Where a SMILES comes first, the peptide text is derived from it. The star is where a group is joined. Cbz = O=C(OCc1ccccc1)*; CH2F = FC*
# How the values were obtained:
# [1] = tested on: β-catenin in HCT8 and DLD1 cells; assay: β-catenin signaling in colon cancer cells (western blot, fractionation, confocal); format: cell-based, human
# Protocol: (§1) Colon carcinoma cells were grown on 8-well chamber slide (3×10^4/well, Millipore) overnight, followed by treatment with MakA for 6 or 24 hours and treated with either Alexa-568 labelled or unlabeled MakA (500 nM), fixed with 2% paraformaldehyde (20 min), permeabilized with Triton X (0.25%). Cells were incubated with anti-Ki67 (1:300), anti-β-catenin (1:300), anti-pAKT (1:100) primary antibodies overnight at +4° C., followed by incubation with corresponding Alexa-488 or Alex-568 conjugated secondary antibodies (1:200) for 1 hour. Finally, cells were counterstained with nuclear marker DAPI for 5 min. Slides were mounted with Fluoromount™ aqueous mounting medium (Sigma) and examined using EZC1 Eclipse laser scanning confocal microscope (Nikon), using 63×/1.4 plan Apo ns lens. Images were captured and processed using the NIS-Elements (Nikon) and ImageJ software.
# To examine whether MakA affects β-catenin signaling in human colon cancer cells, HCT8 and DLD1 cells carrying mutations that inactivates APC tumor suppressor gene (Mouradov, D. et al. (2014) Cancer Res. 2014 Jun. 15; 74(12):3238-47) were used.
# To address if MakA decreases the nuclear accumulation of β-catenin, cells were treated with MakA and fractionated into cytoplasmic and nuclear fractions.
# As caspase-3 mediated fragmentation of β-catenin has been reported (Steinhusen, U. et al. (2000) J Biol Chem 275: 16345-16353), its role in MakA induced β-catenin fragmentation was investigated.
# colon carcinoma cells [2] = assay: Caspase inhibition and MakA-induced cell death; format: cell-based, human; conditions: pretreatment; Presto Blue, MTS, flow cytometry
# Protocol: (§2) For cell death experiments, cells were grown on 96-well plate (1×10^4/well, Tecan Group Ltd) overnight and treated with MakA at different concentration for 48 hours at +37° C., 5% CO2. Cell death was quantified by two different biochemical methods: (1) reduction in PrestoBlue staining; and (2) reduction in MTS absorbance. Cell death is expressed as percentage (%) of untreated control cells for PrestoBlue assay or reduction in absorbance for MTS assay.
# (§3) For cell death analysis, cells were treated with MakA or vehicle control for 48 h and were subjected to flow cytometry analysis for apoptotic cell death measurement using either Annexin V/Propidium iodide or Annexin V/7AAD (BD Pharmingen) staining according to manufactures instruction. Percentage of apoptotic cells was determined by BD LSRII and BD Accuri C6 flow cytometer (BD Bioscience), respectively.
# To address if caspases plays an important role in MakA induced cell death, colon carcinoma cells were pretreated with zVAD-fmk, a pan caspase inhibitor; (Enzolifesciences, Cat #ALX-260-020-M001) followed by treatment with MakA.
# [3] = tested on: advanced colorectal cancer; conditions: cited from earlier work
# HCT8 cells [4] = assay: MakA with 5FU, tumor cell morphology; format: cell-based, human; conditions: HCT8, compared to untreated control
# Protocol: B) Change in tumor cell morphology in response to MakA and 5FU or MakA at different concentration in combination with 5FU (20 μM). Scale bar=30 μm
# Further, the effect on tumor cell morphology was investigated. Unlike 5FU or MakA alone, the combination of MakA and 5FU caused massive changes in tumor cell morphology (FIG. 8B).
# colon carcinoma cells [5] = assay: Mitochondrial potential by DiOC6 staining, flow cytometry; format: cell-based, human
# From the text: (§4) A) MakA induces concentration-dependent apoptotic cell death in HCT8 cells. B) Quantification of flow cytometry events from (A). […] Scale bar=50 μm. D) MakA induces fragmentation of tumor cell nuclei. Scale bar=10 μm E) Accumulation of Bax (green) to the mitochondria of apoptotic cells by MakA. DAPI was used as a nuclear marker. Scale bar=10 μm. F) MakA caused loss of mitochondrial potential in colon carcinoma cells as evident by loss of DiOC6 staining, quantified by flow cytometry. G) MakA causes activation of pro-apoptotic proteins including caspase 3, cytochrome C and Bax and suppression of antiapoptotic protein, Bcl2.
# [6] = tested on: Bax, Bcl2, cytochrome c, caspase 3 in HCT8 cells; assay: Western blotting of apoptosis proteins; format: cell-based, human
# From the text: The regulation of apoptosis involves activation of caspases, increase in Bax/Bcl2 ratio and release of cytochrome c from mitochondria to cytoplasm (Elmore, S. (2007) Toxicol Pathol. 2007; 35(4): 495-516). The effect of MakA on expression of these proteins was investigated using western blotting.
# The effect of MakA on expression of cytochrome c and caspase 3 activation was investigated.
# human RBCs = assay: Hemolysis of human RBCs; format: cell-based
# From the text: However, overexpression of at least three components (makCBA) or whole operon (makDCBA) was required for lethality against C. elegans. (Dongre et al. (2018) Commun Biol. 2018 Jun. 7; 1:59) B) MakA causes cell death in tumor cell lines (HCT8 and DLD1=colon cancer cell, PC3=Prostate cancer cells, HTB9=Bladder cancer cell, PC3=Prostate cancer cell, Suit2=Pancreatic cancer cell, MCF7=Breast cancer cells) of diverse origin. The healthy non-cancerous cells from colon (CCD-18Co and CCD 841 CoN), prostate (PNT1A) and oral fibroblasts (PDL1) were intermediately sensitive compared to tumor cells. […] TritonX-100 (0.1%) induced RBCs hemolysis was used as a positive control. D) MakA induced dramatic changes in tumor cell morphology, unlike non-cancerous PDL1 fibroblasts that were largely unaffected. Scale bar=20 μm.
# [7] = tested on: human colon carcinoma cells, HCT8; oral fibroblasts, PDL1; assay: Live cell microscopy of cell morphology; format: cell-based; conditions: HCT8 versus PDL1
# Protocol: Cells were grown in 96 well plate (1×10^4/well, Tecan Group Ltd) overnight and treated with MakA at different concentration for 48 hours at +37° C., 5% CO2. Fluorescence and bright field images were captured with fluorescence microscope (Nikon, Eclipse Ti). Images were processed using the NIS-Elements (Nikon) and ImageJ software. For live cell confocal microscopy, cells were grown on a coverslip and treated with Alexa-568 labelled MakA for 6 or 24 hours at +37° C., 5% CO2.
# (§5) However, overexpression of at least three components (makCBA) or whole operon (makDCBA) was required for induction of lethality to C. elegans (FIG. 1A). The effect of purified MakA protein was investigated on in vitro cultured human tumor cell lines of diverse origin (HCT8 and DLD1=colon cancer cell, PC3=Prostate cancer cells, HTB9=Bladder cancer cell, PC3=Prostate cancer cell, Suit2=Pancreatic cancer cell, MCF7=Breast cancer cells).
# colon carcinoma cells [8] = assay: Fluorescence and confocal microscopy of apoptosis markers; format: cell-based, human
# From the text: as §4, §1
# [9] = tested on: PIP5K1α, PLCβ, caspase-3 in HCT8 cells; assay: Immunoblot of phospholipid signaling proteins; format: cell-based, human; conditions: HCT8, MakA 500 nM
# Protocol: The effects of MakA on PIP5K1α, PLCβ, actin and caspase-3 were investigated. For immunoblot analysis, HCT8 cells treated with control or MakA toxin were collected and lysed with lysis buffer containing (50 mM Tris, 100 mM NaCl, 1 mM EDTA, 1 mM DTT, 1% Triton X 100, 2% SDS with 1× protease inhibitor cocktail and 1× phosphatase inhibitor). Protein samples were resolved on SDS-PAGE and processed for immunoblotting according to standard procedures. Antisera used were anti-PIP5K1a polyclonal antiserum (1:2000), anti-PLCβ polyclonal antiserum (1:2000), anti-actin polyclonal antiserum (1:5000), and anti-caspase 3 antiserum (1:1000) (all from Cell Signaling Technology, Inc).
# CT26 cell line = assay: CT26 xenograft mice model of colon cancer; format: in vivo; conditions: repeated intratumor injection, 25 μg, from day 9, sacrificed day 21, versus vehicle
# Protocol: (§6) A) Colon cancer was established using the rapidly proliferating CT26 cell line. From day 9, mice were treated by repeated intratumor injection of MakA (25 μg) or Vehicle (Tris 20 mM) at indicated intervals and sacrificed on day 21.
# as §6, with “The therapeutic effect of MakA against colon cancer was investigated in a well-established colon cancer model.” for “A)”, “21 (FIG. 7A).” for “21.”
# tumor cell proliferation = assay: Colony forming assay; format: cell-based
# From the text: The effect of MakA on tumor cell proliferation was investigated.
# [10] = tested on: human tumor cell lines of diverse origin (HCT8, DLD1, PC3, HTB9, Suit2, MCF7); assay: Cell death assays (PrestoBlue, MTS) in tumor cell lines; format: cell-based; conditions: 48 hours
# Protocol: as §2, §5
# HCT8 cells [11] = assay: Apoptotic cell death by flow cytometry; format: cell-based, human; conditions: 48 h
# Protocol: as §3
# Apoptotic cell death in response to MakA was investigated using flow cytometry and fluorescent microscopy.
# [12] = tested on: non-transformed colon cells (CCD-18Co and CCD 841 CoN), prostate (PNT1A) and oral fibroblasts (PDL1); assay: Cell death assays in non-transformed cells; format: cell-based, human; conditions: at the concentration that effectively killed carcinoma cells
# Protocol: as §2, §5
# C. elegans = conditions: MakA overexpressed in E. coli; cited from earlier work
# tumor cell membrane = assay: Transmission electron microscopy of membranes; format: cell-based; conditions: versus vehicle (Tris 20 mM)
# From the text: To address if MakA accumulation at the cell surface may play an important role in tumor cell membrane perturbation, cells treated with MakA were compared to untreated cells and imaged with transmission electron microscopy (TEM). […] The mitochondrial damage was confirmed by confocal microscopy (FIG. 4B).
# [13] = tested on: Ki67, cyclin D1, VEGF in HCT8 and DLD1 cells; assay: Ki67, cyclin D1 and VEGF expression; format: cell-based, human
# tumor cell migration = assay: Tumor cell migration; format: cell-based
# [14] = western blot, HCT8 and DLD1 cells
molecule,measurement,setting,value
"COC(=O)C[C@H](NC(=O)[C@H](C)NC(=O)[C@@H](NC(=O)OCc1ccccc1)C(C)C)C(=O)CF [zVAD-fmk, reference compound] (Cbz-Val-Ala-Asp(OMe)-CH2F)",effect of caspase inhibitor on MakA-induced β-catenin fragmentation,[1]; HCT8 and DLD1 cells,rescued both HCT8 and DLD1 cells from MakA-induced fragmentation and decrease in β-catenin
same,effect of caspase inhibitor on MakA-induced cell death,colon carcinoma cells [2],partially rescued the cells from MakA-induced cell death
"O=c1[nH]cc(F)c(=O)[nH]1 [5FU, 5-fluorouracil, reference compound]",overall response rate,[3],10-15%
same,tumor cell morphology,HCT8 cells [4],caused increased cell size
"MakA (protein, listed as Vibrio cholerae) MSQQVTQLNPTQQTTQSAFLATTVITAQCHAILNTQFTPPTVKPDWFDDLSKKLDSAKLVAKQWIDDLGPQVSASIPSSVINFDATFQASIDAIHELYKADPTASGKDNTTVQQASQIMTALSSQVSGIEATVKGMNKELSDWGVKMQAAHDDLVNGATNIQKTIIDLQTDIESMNNAIDNNRAAIEKLNKDLVYAQVAVGVGIFMLVAGVALTVATAGTAAAVSGGIAAVGAASIIAGGVTWGVLQNQIDDDYDSIAQEQKQKAEDQQQIIALQGLSNASSAVVSAIETSTSVLSDFETTWTVFGNELDDVVTKLNNGASMQSIIMEKVMSDAAKNEWDDAVELAKQLASAKIAIETKELAPAVKQAA",mitochondrial membrane potential,colon carcinoma cells [5],caused depolarization of the mitochondrial membrane
same,caspase 3 activation,[6],activation of caspase 3
same,expression of Bax,[6],"induction in expression of pro-apoptotic protein, Bax"
same,expression of Bcl2,[6],"decrease in expression of anti-apoptotic protein, Bcl2"
same,expression of cytochrome c,[6],increase in cytochrome c expression
same,lysis of human RBCs,human RBCs,failed to induce lysis of human RBCs
same,plasma membrane remodeling,[7],"induced plasma membrane remodeling in human colon carcinoma cells, HCT8 but not in oral fibroblasts, PDL1"
same,Bax accumulation to mitochondria,colon carcinoma cells [8],causes accumulation of active Bax to the mitochondria of an apoptotic cell
same,plasma membrane permeabilization (uptake of propidium iodide),colon carcinoma cells [8],causes permeabilization of tumor cell plasma membrane
same,nuclear staining of apoptotic cells,colon carcinoma cells [8]; fluorescence and confocal microscopy,nuclear fragmentation and chromatin condensation
same,cleaved caspase-3,[9],expression of cleaved caspase-3 was also observed
same,level of PIP5Kα,[9],efficiently reduce the level of PIP5Kα
same,level of PLC-β,[9],reduced level of PLC-β
same,tumor volume,CT26 cell line,caused significant reduction in tumor volume
same,tumor cell morphology,HCT8 cells [4],caused rounding of the cells
same,tumor cell proliferation,tumor cell proliferation,caused significant reduction in tumor cell proliferation
same,β-catenin expression,[1]; HCT8 and DLD1 cells,caused suppression of β-catenin expression in both HCT8 and DLD1 cells
same,β-catenin localization,[1]; compared to untreated control,accumulate at the plasma membrane
same,β-catenin expression in cytoplasmic and nuclear fractions,[1]; fractionated cells,caused reduction in β-catenin expression both in cytoplasmic and nuclear fractions
same,β-catenin fragmentation,[1]; [14],β-catenin fragmentation was detected
same,cell death in tumor cells,[10],induces cell death in diverse range of tumor cells in a dose-dependent manner
same,early and late apoptotic cell death,HCT8 cells [11],dose-dependent increase in both early and late apoptotic cell death
same,sensitivity of non-transformed cells to MakA,[12],largely unaffected or intermediately sensitive
same,lethality to C. elegans,C. elegans,not lethal to C. elegans
same,nuclear membrane by TEM,tumor cell membrane,irregular thin nuclear membrane indicating its damage
same,plasma membrane and mitochondria by TEM,tumor cell membrane,induced plasma membrane remodelling and mitochondrial damage
same,Ki67 positive cells,[13],reduction in number of Ki67 positive cells
same,cyclin D1 expression,[13],reduction in cyclin D1 expression
same,expression of VEGF,[13]; [14],inhibited in both HCT8 and DLD1 cells
same,tumor cell migration,tumor cell migration,caused suppression of tumor cell migration in a dose dependent manner
